This data set addresses T1, ArgR-His6 (Vibrio fluvialis 85003) (UniProt A0AAX2LJS0).
T1 sequence: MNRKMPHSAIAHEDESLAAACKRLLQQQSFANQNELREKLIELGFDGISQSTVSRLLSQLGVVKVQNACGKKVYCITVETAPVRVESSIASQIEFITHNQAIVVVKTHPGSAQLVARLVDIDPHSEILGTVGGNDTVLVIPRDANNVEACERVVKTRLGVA
The experiment in a line: EMSA. The settings on record: EMSA: 20 mM Tris/HCl pH 7.6, 50 mM KCl, 1 mM EDTA, 5% glycerol, 200 ng BSA, 500 ng dI-dC, 15 ng probe, 30 C 20 min; footprinting: 5.40 uM ArgR-His6, 40 uL ….

Take “CCGCAGGCTCTTTAGAATTTCTTTAACGATGAAGTGAAATTCACTTTATCACCATGAATAACAATAAAAGTTTTCACCATATTTATTACAAGTCCTAAGCTTTATTCCACGAAATACGTTGCCATATTGAATAGTATTGCAATAAACGTTTTCTAAATGAGTGAATTGAGGTGTGGG (double strand) [arcD2 probe]”: the binding result was “binds”.

For the origin of these results see PMC11172107.
